Earlier results as cited in PMC4155411.
pKd: −log10 of the molar value.

Target: HPr (Escherichia coli) (UniProt P0AA04)
Assay: PRE NMR titration

For “Enzyme I N-terminal domain (EIN) N-terminal domain (from UniProt P08839)”, the pKd is listed as 5.15.
